Target: UBR5 (UniProt O95071)
Test: co-immunoprecipitation, immunoblot
Details: reference: wild type SIRT7; sites T255,S259

SIRT7 (from UniProt Q9NRC8) SIRT7-2A (T255A/S259A)
binding against the reference: stronger

Reference: PMC8387475
